Blank lines part the entries; values can stand above or below the substance they belong to.
Columns and labels:
[1] = target: human SIRPα variant 1 (human) (UniProt P78324); test: CELISA, CHO-K1 transfectants
hSIRPαV1(P74A) (human) [2] = target: hSIRPαV1(P74A) (human) (UniProt P78324); test: CELISA, CHO-K1 transfectants
[3] = target: human SIRPα variant 1 (human) (UniProt P78324); test: CELISA, CHO-K1 transfectants; extrapolated
[4] = target: human SIRPα variant 2 (human) (UniProt P78324); test: CELISA, CHO-K1 transfectants; extrapolated
human SIRPβ1 (human) [5] = target: human SIRPβ1 (human) (UniProt O00241); test: CELISA, CHO-K1 transfectants
human SIRPγ (human) [6] = target: human SIRPγ (human) (UniProt Q9P1W8); test: CELISA, CHO-K1 transfectants; extrapolated
[7] = target: hSIRPβ1 transcript variant 3/hSIRPβL (human) (UniProt Q5TFQ8); test: CELISA, CHO-K1 transfectants; extrapolated
human SIRPβ1 (human) [8] = target: human SIRPβ1 (human) (UniProt O00241); test: CELISA, CHO-K1 transfectants; extrapolated
[9] = target: human SIRPα variant 1 (human) (UniProt P78324); test: CELISA, CHO-K1 transfectants, point mutant study
hSIRPαV1(P74A) (human) [10] = target: hSIRPαV1(P74A) (human) (UniProt P78324); test: CELISA, CHO-K1 transfectants, point mutant study
human SIRPγ (human) [11] = target: human SIRPγ (human) (UniProt Q9P1W8); test: CELISA, CHO-K1 transfectants; n = 1
[12] = target: human SIRPα variant 1 (human) (UniProt P78324); test: CELISA, CHO-K1 transfectants; n = 1
human SIRPβ1 (human) [13] = target: human SIRPβ1 (human) (UniProt O00241); test: CELISA, CHO-K1 transfectants; n = 1
[14] = target: human SIRPα variant 2 (human) (UniProt P78324); test: CELISA, CHO-K1 transfectants; n = 1
hSIRP-VβC1βC2γ (human) = hSIRP-VβC1βC2γ (human) (UniProt O00241); test: CELISA, CHO-K1 transfectants, domain exchange study
[15] = target: human SIRPα variant 1 (human) (UniProt P78324); test: as above
human SIRPβ1 (human) [16] = target: human SIRPβ1 (human) (UniProt O00241); test: as above
hSIRP-VγC1βC2β (human) = hSIRP-VγC1βC2β (human) (UniProt O00241); test: as above
[17] = target: human SIRPα variant 2 (human) (UniProt P78324); test: as above
hSIRP-VβC1γC2β (human) = hSIRP-VβC1γC2β (human) (UniProt O00241); test: as above
human SIRPγ (human) [18] = target: human SIRPγ (human) (UniProt Q9P1W8); test: CELISA, CHO-K1 transfectants
[19] = target: human SIRPα variant 1 (human) (UniProt P78324); test: CELISA, CHO-K1 transfectants; remark: listed apart in the source
[20] = target: hSIRPβ1 transcript variant 3/hSIRPβL (human) (UniProt Q5TFQ8); test: CELISA, CHO-K1 transfectants
human SIRPβ1 (human) [21] = target: human SIRPβ1 (human) (UniProt O00241); test: CELISA, CHO-K1 transfectants; remark: listed apart in the source
[22] = target: human SIRPα variant 2 (human) (UniProt P78324); test: CELISA, CHO-K1 transfectants
[23] = target: human SIRPα variant 1 (human) (UniProt P78324); test: CELISA, CHO-K1 transfectants; average of two experiments
[24] = target: hSIRPαV8 (NA18570_V8) (human) (UniProt P78324); test: as above
[25] = target: hSIRPαV4 (NA11832_V4) (human) (UniProt P78324); test: as above
[26] = target: hSIRPαV5 (NA18502_V5) (human) (UniProt P78324); test: as above
[27] = target: human SIRPα variant 2 (human) (UniProt P78324); test: as above
[28] = target: hSIRPαV9 (NA18943_V9) (human) (UniProt P78324); test: as above
[29] = target: hSIRPαV6 (NA18507_V6) (human) (UniProt P78324); test: as above
[30] = target: hSIRPαV3 (NA07056_V3) (human) (UniProt P78324); test: as above
[31] = target: human SIRPα variant 1 (human) (UniProt P78324); test: CELISA, CHO-K1 transfectants, domain exchange study; remark: listed apart in the source
human SIRPβ1 (human) [32] = target: human SIRPβ1 (human) (UniProt O00241); test: as above; remark: listed apart in the source
hSIRPα-VαC1βC2α (human) = hSIRPα-VαC1βC2α (human) (UniProt P78324); test: as above
hSIRPα-VβC1αC2α (human) = hSIRPα-VβC1αC2α (human) (UniProt P78324); test: as above
[33] = target: human SIRPα variant 2 (human) (UniProt P78324); test: as above; remark: listed apart in the source
hSIRPα-VαC1αC2β (human) = hSIRPα-VαC1αC2β (human) (UniProt P78324); test: as above
[34] = target: human SIRPα variant 1 (human) (UniProt P78324); test: CELISA, CHO-K1 transfectants, point mutant study; remark: listed apart in the source
hSIRPαV1(P74A) (human) [35] = target: hSIRPαV1(P74A) (human) (UniProt P78324); test: CELISA, CHO-K1 transfectants, point mutant study; remark: listed apart in the source
human SIRPβ1 (human) [36] = target: human SIRPβ1 (human) (UniProt O00241); test: CELISA, CHO-K1 transfectants, point mutant study

Sequence of human SIRPβ1 (human) (O00241 30-398 limits assumed): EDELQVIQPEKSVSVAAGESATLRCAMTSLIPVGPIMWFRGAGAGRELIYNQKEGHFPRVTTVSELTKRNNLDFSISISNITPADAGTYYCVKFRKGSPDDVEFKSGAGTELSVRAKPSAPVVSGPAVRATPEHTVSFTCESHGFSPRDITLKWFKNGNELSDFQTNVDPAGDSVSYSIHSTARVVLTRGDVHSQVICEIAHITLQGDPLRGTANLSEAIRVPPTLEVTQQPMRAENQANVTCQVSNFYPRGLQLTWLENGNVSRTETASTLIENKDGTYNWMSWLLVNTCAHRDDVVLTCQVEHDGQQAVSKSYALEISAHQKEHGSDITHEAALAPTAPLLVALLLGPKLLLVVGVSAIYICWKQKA
Sequence of human SIRPα variant 2 (human) (P78324 other isoform, or with tags, fused parts or gaps mutant limits assumed): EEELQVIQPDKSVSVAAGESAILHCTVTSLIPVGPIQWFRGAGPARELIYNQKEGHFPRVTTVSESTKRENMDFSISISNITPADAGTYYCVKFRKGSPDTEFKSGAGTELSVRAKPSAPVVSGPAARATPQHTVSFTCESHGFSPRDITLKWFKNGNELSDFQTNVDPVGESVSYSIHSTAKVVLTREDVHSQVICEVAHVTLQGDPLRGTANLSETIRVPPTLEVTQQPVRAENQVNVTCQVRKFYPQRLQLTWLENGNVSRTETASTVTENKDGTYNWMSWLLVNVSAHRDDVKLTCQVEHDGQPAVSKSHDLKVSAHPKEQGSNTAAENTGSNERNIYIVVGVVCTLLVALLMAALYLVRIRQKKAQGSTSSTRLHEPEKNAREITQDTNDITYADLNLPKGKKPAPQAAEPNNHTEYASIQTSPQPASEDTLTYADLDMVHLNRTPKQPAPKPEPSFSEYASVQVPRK
Sequence of human SIRPα variant 1 (human) (P78324 31-504 limits assumed, stated change not applied): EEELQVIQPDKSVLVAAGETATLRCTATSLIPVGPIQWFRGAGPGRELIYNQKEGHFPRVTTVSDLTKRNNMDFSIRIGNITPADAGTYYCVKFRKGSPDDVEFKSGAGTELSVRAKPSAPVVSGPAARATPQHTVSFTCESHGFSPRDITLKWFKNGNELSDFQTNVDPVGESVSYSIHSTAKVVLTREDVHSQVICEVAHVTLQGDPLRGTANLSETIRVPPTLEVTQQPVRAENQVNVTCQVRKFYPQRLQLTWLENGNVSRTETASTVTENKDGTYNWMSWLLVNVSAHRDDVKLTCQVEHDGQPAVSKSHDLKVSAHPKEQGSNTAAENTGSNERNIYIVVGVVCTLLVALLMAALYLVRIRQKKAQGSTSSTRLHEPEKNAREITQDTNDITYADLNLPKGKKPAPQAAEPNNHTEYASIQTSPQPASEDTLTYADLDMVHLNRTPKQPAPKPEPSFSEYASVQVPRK
Sequence of hSIRPαV1(P74A) (human) (P78324 31-504 P74A limits assumed): as the sequence (P78324 31-504 limits assumed, stated change not applied) above, with P44A counted along it
Sequence of human SIRPγ (human) (Q9P1W8 29-387 limits assumed): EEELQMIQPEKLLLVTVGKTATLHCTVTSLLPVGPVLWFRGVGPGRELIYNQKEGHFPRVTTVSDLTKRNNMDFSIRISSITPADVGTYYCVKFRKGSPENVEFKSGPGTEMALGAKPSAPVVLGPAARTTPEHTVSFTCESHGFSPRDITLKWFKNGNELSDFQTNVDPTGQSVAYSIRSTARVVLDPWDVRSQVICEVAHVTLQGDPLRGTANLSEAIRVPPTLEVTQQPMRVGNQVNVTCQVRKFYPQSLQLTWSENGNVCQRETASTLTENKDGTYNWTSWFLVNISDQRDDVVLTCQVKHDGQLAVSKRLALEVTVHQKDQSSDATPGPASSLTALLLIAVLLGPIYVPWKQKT
Sequence of hSIRPβ1 transcript variant 3/hSIRPβL (human) (Q5TFQ8 30-398 limits assumed, change not shown): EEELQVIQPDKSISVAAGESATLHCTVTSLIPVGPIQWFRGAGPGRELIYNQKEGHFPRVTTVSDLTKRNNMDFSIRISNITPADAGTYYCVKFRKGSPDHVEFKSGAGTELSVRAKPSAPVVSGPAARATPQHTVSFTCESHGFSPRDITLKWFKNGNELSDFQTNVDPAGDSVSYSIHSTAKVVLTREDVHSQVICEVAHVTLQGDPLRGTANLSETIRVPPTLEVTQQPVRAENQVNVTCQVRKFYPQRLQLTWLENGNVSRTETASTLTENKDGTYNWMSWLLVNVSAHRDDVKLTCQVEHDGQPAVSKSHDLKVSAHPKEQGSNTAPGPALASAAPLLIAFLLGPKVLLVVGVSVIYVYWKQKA
Sequence of hSIRPα-VβC1αC2α (human) (P78324 other isoform, or with tags, fused parts or gaps limits assumed): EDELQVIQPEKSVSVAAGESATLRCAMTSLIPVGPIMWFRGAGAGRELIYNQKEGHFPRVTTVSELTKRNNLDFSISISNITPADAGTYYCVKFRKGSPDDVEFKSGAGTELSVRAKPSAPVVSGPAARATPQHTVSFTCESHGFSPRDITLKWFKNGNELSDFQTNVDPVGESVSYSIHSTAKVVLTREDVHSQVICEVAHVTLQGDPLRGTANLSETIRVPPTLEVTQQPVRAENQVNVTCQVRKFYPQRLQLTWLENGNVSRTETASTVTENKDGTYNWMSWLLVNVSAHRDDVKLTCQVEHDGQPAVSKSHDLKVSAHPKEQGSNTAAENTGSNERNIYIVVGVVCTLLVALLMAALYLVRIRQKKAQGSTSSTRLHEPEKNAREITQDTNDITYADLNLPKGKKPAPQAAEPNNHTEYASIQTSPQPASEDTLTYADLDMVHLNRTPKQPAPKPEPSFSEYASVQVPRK
Sequence of hSIRPαV4 (NA11832_V4) (human) (P78324 other isoform, or with tags, fused parts or gaps limits assumed): as the sequence (P78324 31-504 limits assumed, stated change not applied) above, with E3G, L14S, T20S, T22I, R24H counted along it
Sequence of hSIRPαV6 (NA18507_V6) (human) (P78324 31-504 S105P limits assumed): as the sequence (P78324 31-504 limits assumed, stated change not applied) above, with S75P counted along it
Sequence of hSIRPαV5 (NA18502_V5) (human) (P78324 other isoform, or with tags, fused parts or gaps limits assumed): as the sequence (P78324 31-504 limits assumed, stated change not applied) above, with S12F counted along it
Sequence of hSIRPα-VαC1βC2α (human) (P78324 other isoform, or with tags, fused parts or gaps limits assumed): as the sequence (P78324 31-504 limits assumed, stated change not applied) above, with A128V, Q133E, V171A, E173D, K184R, E190G, V200I, V203I counted along it

Substance: anti-hSIRPα (clone D6I3M) (antibody)
- EC50 [1]: > 6410 pM
- EC50 (hSIRPαV1(P74A) (human) [2]): > 122000 pM
- EC50 [3]: 18700 pM
- EC50 [4]: 8760 pM

Substance: anti-hSIRPα (clone SE7C2) (antibody)
- EC50 [1]: > 7010 pM
- EC50 (hSIRPαV1(P74A) (human) [2]): > 6140 pM
- EC50 [3]: 1270 pM
- EC50 [7]: 26800 pM
- EC50 (human SIRPγ (human) [18]): 1520 pM
- EC50 [22]: 300 pM

Substance: anti-hSIRPγ (clone LSB2.20) (antibody)
- EC50 (human SIRPγ (human) [11]): 265 pM

The next lines start with the values.

- EC50 [1]: > 1170 pM
- EC50 (hSIRPαV1(P74A) (human) [2]): > 2000 pM
- EC50 [4]: 2450 pM
Substance: anti-hSIRPα (clone EPR16264) (antibody)

- EC50 [1]: > 3660 pM
- EC50 (hSIRPαV1(P74A) (human) [2]): > 4790 pM
- EC50 (human SIRPβ1 (human) [5]): > 3080 pM
- EC50 (human SIRPγ (human) [6]): 3210 pM
- EC50 [3]: 5240 pM
- EC50 [7]: 2150 pM
- EC50 (human SIRPβ1 (human) [8]): 4530 pM
- EC50 [4]: 3270 pM
Substance: anti-hSIRPα (clone REA144) (antibody)

- EC50 [1]: 156 pM
- EC50 (hSIRPαV1(P74A) (human) [2]): 207 pM
- EC50 (human SIRPβ1 (human) [5]): 105 pM
- EC50 [9]: 163 pM
- EC50 (hSIRPαV1(P74A) (human) [10]): 149 pM
- EC50 (human SIRPγ (human) [11]): 168 pM
- EC50 [12]: 304 pM
- EC50 (human SIRPβ1 (human) [13]): 192 pM
- EC50 [14]: 200 pM
- EC50 (hSIRP-VβC1βC2γ (human)): 231 pM
- EC50 [15]: 350 pM
- EC50 (human SIRPβ1 (human) [16]): 249 pM
- EC50 (hSIRP-VγC1βC2β (human)): 287 pM
- EC50 [17]: 224 pM
- EC50 (hSIRP-VβC1γC2β (human)): 309 pM
- EC50 (human SIRPγ (human) [18]): 200 pM
- EC50 [19]: 372 pM
- EC50 [20]: 122 pM
- EC50 (human SIRPβ1 (human) [21]): 185 pM
- EC50 [22]: 186 pM
- EC50 [23]: 327 pM
- EC50 [24]: 300 pM
- EC50 [25]: 256 pM
- EC50 [26]: 276 pM
- EC50 [27]: 200 pM
- EC50 [28]: 260 pM
- EC50 [29]: 98 pM
- EC50 [30]: 226 pM
- EC50 [31]: 117 pM
- EC50 (human SIRPβ1 (human) [32]): 180 pM
- EC50 (hSIRPα-VαC1βC2α (human)): 135 pM
- EC50 (hSIRPα-VβC1αC2α (human)): 121 pM
- EC50 [33]: 84 pM
- EC50 (hSIRPα-VαC1αC2β (human)): 127 pM
- EC50 [34]: 164 pM
- EC50 (hSIRPαV1(P74A) (human) [35]): 150 pM
- EC50 (human SIRPβ1 (human) [36]): 156 pM
Substance: anti-hSIRPα (clone SE5A5) (antibody)

Source: patent US20180312587A1
